Measured values from patent US20160102316A1, “STRESS TOLERANT PLANTS” (CONSEJO SUPERIOR DE INVESTIGACIONES CIENTIFICAS(CSIC), priority 2013, published 2016).

B1: DDA1:YFPC (other)
chain: MASILGDLPSFDPHNFSQHRPSDPSNPSKMVPTTYRPTHNRTLPPPDQVITTEVKNILIRSFYQRAEEKLRPKRPATDHLAAEHVNKHFRAASSSSSTQGL
notes: BiFC construct expressed transiently in N. benthamiana leaves; also called DDA1 fusion with the C-portion of YFP; not shown: C-portion of the yellow fluorescent protein (YFP)
B2: DDA1 fused to the binding domain of GAL4 (pGBKT7-DDA1) (other)
chain: MKLLSSIEQACDICRLKKLKCSKEKPKCAKCLKNNWECRYSPKTKRSPLTRAHLTEVESRLERLEQLFLLIFPREDLDMILKMDSLQDIKALLTGLFVQDNVNKDAVTDRLASVETDMPLTLRQHRISATSSSEESSNKGQRQLTVSMASILGDLPSFDPHNFSQHRPSDPSNPSKMVPTTYRPTHNRTLPPPDQVITTEVKNILIRSFYQRAEEKLRPKRPATDHLAAEHVNKHFRAASSSSSTQGL
notes: Other vector-encoded residues of pGBKT7 are not described; also called AtDDA1; DET1-, DDB1-Associated 1
B3: full length PYL8 (receptor, Arabidopsis, UniProt Q9FGM1 1-188, looked up)
chain: MEANGIENLTNPNQEREFIRRHHKHELVDNQCSSTLVKHINAPVHIVWSLVRRFDQPQKYKPFISRCVVKGNMEIGTVREVDVKSGLPATRSTERLELLDDNEHILSIRIVGGDHRLKNYSSIISLHPETIEGRIGTLVIESFVVDVPEGNTKDETCYFVEALIKCNLKSLADISERLAVQDTTESRV
notes: Gal4-domain fusion in the yeast two-hybrid assays; also called ABA receptor PYL8
B4: COP10 (other, Arabidopsis, UniProt Q9LJD7 1-182, looked up)
chain: MMTPGGSGRLRPLPTAMYAGYSGTASSWVAKTSVSASGKRIQREMAELNIDPPPDCSAGPKGDNLYHWIATIIGPSGTPYEGGIFFLDIIFPSDYPFKPPKLVFKTRIYHCNVDTAGDLSVNILRDSWSPALTITKVLQAIRSIFLKPEPYSPALPVIARLYLTDREKHDEVAKEWTLRFAK
notes: Endogenous protein in the TAP; also called CONSTITUTIVE PHOTOMORPHOGENIC10
B5: PYL5 (receptor, Arabidopsis, UniProt Q9FLB1 1-203, looked up)
chain: MRSPVQLQHGSDATNGFHTLQPHDQTDGPIKRVCLTRGMHVPEHVAMHHTHDVGPDQCCSSVVQMIHAPPESVWALVRRFDNPKVYKNFIRQCRIVQGDGLHVGDLREVMVVSGLPAVSSTERLEILDEERHVISFSVVGGDHRLKNYRSVTTLHASDDEGTVVVESYIVDVPPGNTEEETLSFVDTIVRCNLQSLARSTNRQ
B6: PYL6 (receptor, Arabidopsis, UniProt Q8S8E3 1-215, looked up)
chain: MPTSIQFQRSSTAAEAANATVRNYPHHHQKQVQKVSLTRGMADVPEHVELSHTHVVGPSQCFSVVVQDVEAPVSTVWSILSRFEHPQAYKHFVKSCHVVIGDGREVGSVREVRVVSGLPAAFSLERLEIMDDDRHVISFSVVGGDHRLMNYKSVTTVHESEEDSDGKKRTRVVESYVVDVPAGNDKEETCSFADTIVRCNLQSLAKLAENTSKFS

Key:
YFPN:PYL8 = target: T1, YFPN:PYL8 (Arabidopsis, UniProt Q9FGM1 1-188); assay: BiFC in N. benthamiana epidermal cells
T1 construct: BiFC construct expressed transiently in N. benthamiana leaves; also called PYL8 fusion with the N-portion of YFP; not shown: N-portion of the yellow fluorescent protein (YFP)
T1 sequence (looked up): B3 chain
Method: To confirm that DDA1 and PYL8 interact in planta, we performed bimolecular fluorescence complementation (BiFC) assays. N. benthamiana leaves were coinfiltrated with Agrobacterium tumefaciens cells to express DDA1 and PYL8 fusions with the Nor C-portions of the yellow fluorescent protein (YFP). The infiltrated leaves were analyzed under the confocal fluorescence microscope 3 d after infiltration.
YFPN:PYL8/DDA1:YFPC were co-infiltrated into the abaxial surface of 3-week-old N. benthamiana plants as described (Voinnet et al., 2003). The p19 protein was used to suppress gene silencing. The empty vectors were used as negative controls. Fluorescence was visualized in epidermal cells of leaves after 3 d of infiltration using a Leica sp5 confocal microscope. Nuclei were visualized after submerging the leaves in a DAPI solution (1 μg mL-1 DAPI in 100 mM phosphate buffer, 0.5% Triton X-100).

DET1 [1] = target: T2, DET1 (Arabidopsis, UniProt P48732 1-543); assay: yeast two-hybrid
T2 construct: Endogenous protein in the TAP; also called DEETIOLATED 1
T2 sequence (looked up): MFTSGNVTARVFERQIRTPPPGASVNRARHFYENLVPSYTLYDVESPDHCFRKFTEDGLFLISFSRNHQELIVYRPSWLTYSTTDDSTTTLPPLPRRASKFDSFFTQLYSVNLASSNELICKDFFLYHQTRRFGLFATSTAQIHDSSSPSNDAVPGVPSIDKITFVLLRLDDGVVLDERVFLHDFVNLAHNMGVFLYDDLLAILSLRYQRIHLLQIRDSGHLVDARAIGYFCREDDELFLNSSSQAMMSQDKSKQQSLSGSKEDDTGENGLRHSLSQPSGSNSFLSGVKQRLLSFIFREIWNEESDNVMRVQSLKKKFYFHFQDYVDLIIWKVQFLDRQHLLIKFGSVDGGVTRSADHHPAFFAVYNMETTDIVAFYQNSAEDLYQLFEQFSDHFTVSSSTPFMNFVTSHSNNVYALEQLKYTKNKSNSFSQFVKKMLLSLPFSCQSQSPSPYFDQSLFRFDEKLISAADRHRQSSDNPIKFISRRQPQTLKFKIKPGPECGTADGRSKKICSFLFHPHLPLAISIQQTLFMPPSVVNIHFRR
Method: (§1) (A) Y187 yeast cells transformed with pGBKT7-DDA1 were used to screen a cDNA library prepared from Arabidopsis seedlings in the pGADT7 vector and transformed into AH109 cells. Positive clones included truncated versions of ABA receptors PYL4 and PYL9. Yeast clones were grown in selective media containing different concentrations of 3AT (ranging 0.5 to 5 […]). Empty pGADT7 vector was used as negative control. (B-C) DDA1 interaction with full length PYL8 (B), PYL4, PYL5, PYL6 or PYL9 (C) was assessed using yeast two hybrid experiments as in (A). Physical association between PYL8 and other components of the CDD complex (DDB1a, DDB1b, DET1 and COP10) was also tested (B).
(§2) The molecular basis of DDA1 activity is unknown. To get insights into its mechanism of action, we searched for proteins that interact with DDA1. With this aim, we conducted a yeast two-hybrid screen using DDA1 as bait. Thus, the full-length coding sequence of DDA1 fused to the binding domain of GAL4 was used to screen a cDNA library prepared from Arabidopsis seedlings. From over 15 million clones screened, 200 were identified as potential DDA1 interactors. Among them, 20 were subsequently confirmed by retransformation into yeast. […] We aimed to determine whether DDA1 interacts with full length PYL4 and PYL9 and with other Arabidopsis PYR/PYL/RCAR family members using yeast two hybrid assays.
(§3) The full length DDA1 cDNA was cloned into the pGBKT7 (Gal4 DNA binding domain, BD; Clontech). […] To confirm protein interactions, plasmids were co-transformed into Saccharomyces cerevisiae AH109 cells, following standard heat-shock protocols (Chini et al., 2007).

DET1 [2] = target: T2, DET1; assay: yeast two-hybrid (FIG. 4B)
Method: as §1
(§4) The full length DDA1 cDNA was cloned into the pGBKT7 (Gal4 DNA binding domain, BD; Clontech). […] To confirm protein interactions, plasmids were co-transformed into Saccharomyces cerevisiae AH109 cells, following standard heat-shock protocols (Chini et al., 2007). Successfully transformed colonies were identified on yeast synthetic drop-out lacking Leu and Trp; these colonies were resuspended in water and transferred to selective media lacking Ade, His, Leu and Trp. Plates without His were supplemented with different concentrations of 3-amino 1,2,4-triazole (3AT; ranging 0.5-10 mM). Yeast cells were incubated at 30° C. during 6 days. Empty vectors were co-transformed as negative controls. To test the DDA1 interaction with specific DDB1a domains, DDB1a truncated versions were generated and cloned into the pGADT7 vector as follows: BPA (aa 16-350), BPB (aa 387-704), BPA+BPB (aa 16-704), BPC (aa 704-1002) and BPB+BPC (aa 350-1002). Full length DDB1a was used as a positive control.

DDB1a = target: T3, DDB1a (Arabidopsis, UniProt Q9M0V3 1-1088); assay: yeast two-hybrid (FIG. 4B)
T3 construct: Endogenous protein in the TAP from Arabidopsis cell cultures; also called DDB1 proteins
T3 sequence (looked up): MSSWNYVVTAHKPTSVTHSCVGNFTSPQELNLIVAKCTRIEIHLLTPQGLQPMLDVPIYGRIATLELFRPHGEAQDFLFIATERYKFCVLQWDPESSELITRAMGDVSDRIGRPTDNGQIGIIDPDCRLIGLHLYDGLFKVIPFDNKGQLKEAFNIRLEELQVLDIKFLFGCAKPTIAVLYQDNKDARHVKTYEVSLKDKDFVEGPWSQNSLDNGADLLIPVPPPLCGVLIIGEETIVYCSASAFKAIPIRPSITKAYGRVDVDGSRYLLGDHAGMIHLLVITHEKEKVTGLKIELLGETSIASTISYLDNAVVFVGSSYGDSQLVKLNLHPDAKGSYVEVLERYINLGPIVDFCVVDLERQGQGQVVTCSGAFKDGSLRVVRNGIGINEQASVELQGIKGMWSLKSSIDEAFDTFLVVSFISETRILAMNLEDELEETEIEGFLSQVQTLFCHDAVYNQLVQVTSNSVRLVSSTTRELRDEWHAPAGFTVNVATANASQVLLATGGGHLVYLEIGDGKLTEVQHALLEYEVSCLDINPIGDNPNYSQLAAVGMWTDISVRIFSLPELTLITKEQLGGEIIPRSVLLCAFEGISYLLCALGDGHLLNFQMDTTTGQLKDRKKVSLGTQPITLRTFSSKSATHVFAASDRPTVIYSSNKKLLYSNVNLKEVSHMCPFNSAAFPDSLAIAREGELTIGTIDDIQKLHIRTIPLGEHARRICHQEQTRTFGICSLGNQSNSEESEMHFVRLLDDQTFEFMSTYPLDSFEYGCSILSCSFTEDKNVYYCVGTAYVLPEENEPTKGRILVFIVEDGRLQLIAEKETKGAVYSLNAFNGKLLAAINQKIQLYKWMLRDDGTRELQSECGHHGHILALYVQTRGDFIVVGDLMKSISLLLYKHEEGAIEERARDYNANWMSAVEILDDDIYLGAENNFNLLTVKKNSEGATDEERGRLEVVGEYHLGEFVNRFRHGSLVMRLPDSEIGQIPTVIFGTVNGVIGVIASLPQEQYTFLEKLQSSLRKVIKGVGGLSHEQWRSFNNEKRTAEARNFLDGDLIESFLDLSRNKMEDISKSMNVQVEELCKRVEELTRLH
Method: as §1, §4

DDB1b = target: T4, DDB1b (Arabidopsis, UniProt O49552 1-1088); assay: yeast two-hybrid (FIG. 4B)
T4 construct: Endogenous protein in the TAP; also called DDB1 proteins
T4 sequence (looked up): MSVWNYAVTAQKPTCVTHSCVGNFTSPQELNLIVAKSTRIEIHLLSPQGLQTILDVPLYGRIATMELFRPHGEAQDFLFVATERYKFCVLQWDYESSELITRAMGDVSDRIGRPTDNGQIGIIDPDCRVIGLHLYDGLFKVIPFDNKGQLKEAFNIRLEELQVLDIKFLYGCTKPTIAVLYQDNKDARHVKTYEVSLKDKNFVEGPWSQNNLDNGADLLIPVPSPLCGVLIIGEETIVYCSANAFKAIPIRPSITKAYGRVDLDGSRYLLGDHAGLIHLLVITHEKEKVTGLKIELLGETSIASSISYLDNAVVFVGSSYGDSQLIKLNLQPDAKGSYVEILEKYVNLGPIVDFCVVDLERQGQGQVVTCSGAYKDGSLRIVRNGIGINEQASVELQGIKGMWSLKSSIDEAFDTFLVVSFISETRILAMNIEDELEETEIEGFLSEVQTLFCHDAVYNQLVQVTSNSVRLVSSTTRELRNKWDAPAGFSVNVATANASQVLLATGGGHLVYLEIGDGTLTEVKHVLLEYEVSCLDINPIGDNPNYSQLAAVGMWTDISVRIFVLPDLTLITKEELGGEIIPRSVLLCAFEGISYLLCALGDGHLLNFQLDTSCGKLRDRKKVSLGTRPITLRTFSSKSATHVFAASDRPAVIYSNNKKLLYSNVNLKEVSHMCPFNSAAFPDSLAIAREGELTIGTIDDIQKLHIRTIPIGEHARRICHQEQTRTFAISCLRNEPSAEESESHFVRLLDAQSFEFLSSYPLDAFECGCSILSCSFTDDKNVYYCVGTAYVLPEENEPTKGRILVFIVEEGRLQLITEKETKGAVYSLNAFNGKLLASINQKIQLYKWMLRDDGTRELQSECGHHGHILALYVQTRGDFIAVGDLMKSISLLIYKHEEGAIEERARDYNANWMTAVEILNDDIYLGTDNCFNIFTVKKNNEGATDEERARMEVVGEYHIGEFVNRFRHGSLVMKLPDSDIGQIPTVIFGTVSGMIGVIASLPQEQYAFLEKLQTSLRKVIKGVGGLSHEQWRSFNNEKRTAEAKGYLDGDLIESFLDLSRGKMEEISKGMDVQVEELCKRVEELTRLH
Method: as §1, §4

[3] = target: B2; assay: yeast two-hybrid
Method: as §1, §2, §3

full length PYL8 = target: B3; assay: yeast two-hybrid (FIG. 4B)
Method: as §1, §4

## B1
YFPN:PYL8
  binding result: binds

## B2
DET1 [1]
  binding result: no binding

## B3
DET1 [2]
  binding result: no binding
DDB1a
  binding result: no binding
DDB1b
  binding result: no binding

## B4
[3]
  binding result: no binding
Full length PYL8
  binding result: no binding

## B5
[3]
  binding result: no binding

## B6
[3]
  binding result: no binding
